Assays:
[1] = molecular target: T1, MBD of MeCP2 (wild type) (human/mouse (residues 76-167 identical), UniProt P51608 76-167); assay: EMSA/T4 endonuclease V
[2] = molecular target: T1, MBD of MeCP2 (wild type); assay: EMSA
[3] = molecular target: T1, MBD of MeCP2 (wild type); assay: EMSA; remark: listed apart in the source
[4] = molecular target: T1, MBD of MeCP2 (wild type); assay: EMSA/T4 endonuclease V; remark: listed apart in the source
[5] = molecular target: T1, MBD of MeCP2 (wild type); assay: EMSA; remark: listed apart in the source

T1 sequence (P51608 76-167): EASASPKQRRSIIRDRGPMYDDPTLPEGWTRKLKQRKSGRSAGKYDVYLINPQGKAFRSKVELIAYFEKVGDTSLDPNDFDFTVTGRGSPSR

B1: C=mCG•mCGG CPD duplex (dsDNA)
DNA 1: TAGAAGAATTCCGTTCCAGA
DNA 2: TCTGGAACGGAATTCTTCTA
modifications: 5-methyl-dC at strand 1 pos 12 and strand 2 pos 8; cis-syn CPD between C11 and mC12
Kd [1]: 11 ± 3 nM

B2: CTG•mCGG single-mismatch duplex (dsDNA)
DNA 1: TAGAAGAATTCTGTTCCAGA
DNA 2: TCTGGAACGGAATTCTTCTA
modifications: 5-methyl-dC at strand 2 pos 8
Kd [2]: 66 ± 22 nM

B3: T=TmCG•mCGAA CPD duplex (dsDNA)
DNA 1: TAGAAGAATTTCGTTCCAGA
DNA 2: TCTGGAACGAAATTCTTCTA
modifications: 5-methyl-dC at strand 1 pos 12 and strand 2 pos 8; cis-syn CPD between T10 and T11
Kd [1]: 13 ± 3 nM

B4: T=TTmCG•mCGAAA CPD duplex (dsDNA)
DNA 1: TAGAAGAATTTCGTTCCAGA
DNA 2: TCTGGAACGAAATTCTTCTA
modifications: 5-methyl-dC at strand 1 pos 12 and strand 2 pos 8; cis-syn CPD between T9 and T10
Kd [1]: 47 ± 14 nM

B5: CmCG•mCGG duplex (BDNF promoter III) (dsDNA)
DNA 1: TAGAAGAATTCCGTTCCAGA
DNA 2: TCTGGAACGGAATTCTTCTA
modifications: 5-methyl-dC at strand 1 pos 12 and strand 2 pos 8
Kd [3]: 12.5 ± 3.5 nM | Kd [4]: 46 ± 26 nM

B6: CmCG•mCGG in AT tract (dsDNA)
DNA 1: TTATTTTTATCCGTTTTTAATTAT
DNA 2: ATAATTAAAAACGGATAAAAATAA
modifications: 5-methyl-dC at strand 1 pos 12 and strand 2 pos 12
Kd [5]: ~15 nM

B7: TmCG•mCGA duplex (dsDNA)
DNA 1: TAGAAGAATTTCGTTCCAGA
DNA 2: TCTGGAACGAAATTCTTCTA
modifications: 5-methyl-dC at strand 1 pos 12 and strand 2 pos 8
Kd [2]: 35 ± 9 nM | Kd [4]: 75 ± 35 nM

Reference: article PMC2978359
